Source: the supplement of paper PMC11908140

B1: library; numbered along this chain (parent)
chain: MRKPRAAVGSGHRKQAASQEGRQKHAKNNSQAKPSACDGLARQPEEVVLQASVSSYHLFRDVAEVTAFRGSLLSWYDQEKRDLPWRRRAEDEMDLDRRAYAVWVSEVMLQQTQVATVINYYTGWMQKWPTLQDLASASLEEVNQLWAGLGYYSRGRRLQEGARKVVEELGGHMPRTAETLQQLLPGVGRYTAGAIASIAFGQATGVVDGNVARVLCRVRAIGADPSSTLVSQQLWGLAQQLVDPARPGDFNQAAMELGATVCTPQRPLCSQCPVESLCRARQRVEQEQLLASGSLSGSPDVEECAPNTGQCHLCLPPSEPWDQTLGVVNFPRKASRKPPREESSATCVLEQPGALGAQILLVQRPNSGLLAGLWEFPSVTWEPSEQLQRKALLQELQRWAGPLPATHLRHLGEVVHTFSHIKLTYQVYGLALEGQTPVTTVPPGARWLTQEEFHTAAVSTAMKKVFRVYQGQQPGTCMGSKRSQVSSPCSRKKPRMGQQVLDNFFRSHISTDAHSLNSAAQ

Variants of: B1
Assay: 8OG:A repair function score (normalized; synonymous = 0, nonsense = -1) (normalized log-likelihood score); higher = more repair activity (WT-like)
Conditions: with 8OG:A DNA repair reporter (GFP) in HEK-293 MUTYH KO cells
Outline: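 Lentiviral MUTYH cDNA NNN codon-scan libraries in HEK-293 MUTYH knockout cells (10 pg/ml doxycycline) were co-transfected with an 8OG:A GFP repair reporter plus mCherry. At 72 h, viable mCherry+ cells were sorted into GFP+ (repair) and GFP− bins, three replicates per tile, then tile amplicons were sequenced. Per-tile Rosace fitness scores became a normalized repair function score anchored on synonymous and nonsense distributions. Synonymous medians were set to 0 and nonsense to -1; variants under 300 counts per million at the start were removed.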

Going from H416N to H416R, the “8OG:A repair function score” value rises from -0.342 to -0.158.

Compared with H416L, H416A is higher in “8OG:A repair function score” value: -0.319 for the first, -0.0865 for the second.

Going from H416V to H416P, the “8OG:A repair function score” value falls from -0.101 to -0.576.

First: H416S
Second: H416I
The “8OG:A repair function score” value of the first is higher: -0.0543 for the first, -0.188 for the second.

First: H416D
Second: H416T
The “8OG:A repair function score” value of the first is lower: -0.403 for the first, 0.0616 for the second.

First: H416G
Second: H416W
The “8OG:A repair function score” value of the first is higher: -0.0614 for the first, -0.209 for the second.

Compared with H416C, H416E is lower in “8OG:A repair function score” value: -0.483 for the first, -0.909 for the second.

First: H416M
Second: H416Q
The “8OG:A repair function score” value of the first is lower: -0.755 for the first, 0.399 for the second.

Going from H416K to H416F, the “8OG:A repair function score” value rises from -0.715 to -0.448.

First: H416Y
Second: I421T
The “8OG:A repair function score” value of the first is lower: -0.438 for the first, -0.299 for the second.

Going from I421L to I421R, the “8OG:A repair function score” value falls from 0.0792 to -0.207.

First: I421W
Second: I421F
The “8OG:A repair function score” value of the first is lower: -0.59 for the first, -0.142 for the second.

Compared with I421S, I421D is lower in “8OG:A repair function score” value: -0.59 for the first, -0.852 for the second.

Going from I421K to I421G, the “8OG:A repair function score” value falls from -0.173 to -0.609.

First: I421H
Second: I421C
The “8OG:A repair function score” value of the first is higher: -0.201 for the first, -0.3 for the second.

Going from I421A to I421Q, the “8OG:A repair function score” value falls from -0.443 to -0.51.

First: I421V
Second: I421E
The “8OG:A repair function score” value of the first is higher: -0.0973 for the first, -0.385 for the second.

First: I421P
Second: I421M
The “8OG:A repair function score” value of the first is lower: -1.15 for the first, -0.139 for the second.

Compared with I421Y, I421N is lower in “8OG:A repair function score” value: -0.435 for the first, -0.83 for the second.

Compared with T424H, T424F is higher in “8OG:A repair function score” value: -0.235 for the first, -0.0268 for the second.

Going from T424M to T424P, the “8OG:A repair function score” value falls from -0.383 to -0.685.

Going from T424L to T424E, the “8OG:A repair function score” value falls from -0.165 to -0.45.

Going from T424K to T424N, the “8OG:A repair function score” value rises from -0.203 to -0.156.

Compared with T424Q, T424R is higher in “8OG:A repair function score” value: -0.355 for the first, -0.0759 for the second.

Going from T424A to T424W, the “8OG:A repair function score” value falls from -0.121 to -0.204.

Going from T424V to T424S, the “8OG:A repair function score” value falls from -0.09 to -0.192.

Compared with T424G, T424Y is higher in “8OG:A repair function score” value: -0.293 for the first, -0.181 for the second.

First: T424C
Second: T424I
The “8OG:A repair function score” value of the first is lower: -0.0623 for the first, 0.0389 for the second.

Compared with T424D, S419N is lower in “8OG:A repair function score” value: -0.256 for the first, -0.269 for the second.

Compared with S419H, S419I is lower in “8OG:A repair function score” value: -0.28 for the first, -0.542 for the second.

Compared with S419D, S419F is lower in “8OG:A repair function score” value: -0.221 for the first, -0.753 for the second.

Going from S419R to S419Q, the “8OG:A repair function score” value rises from -0.334 to -0.333.

Compared with S419K, S419C is lower in “8OG:A repair function score” value: 0.0315 for the first, -0.434 for the second.

Going from S419T to S419Y, the “8OG:A repair function score” value falls from -0.177 to -0.503.

First: S419W
Second: S419L
The “8OG:A repair function score” value of the first is lower: -0.75 for the first, -0.749 for the second.

Going from S419M to S419A, the “8OG:A repair function score” value rises from -0.561 to -0.188.

Going from S419P to S419E, the “8OG:A repair function score” value falls from -0.574 to -0.583.

Going from S419V to S419G, the “8OG:A repair function score” value falls from -0.259 to -0.522.

First: L408N
Second: L408R
The “8OG:A repair function score” value of the first is lower: -0.893 for the first, -0.839 for the second.

Compared with L408Y, L408V is lower in “8OG:A repair function score” value: -0.205 for the first, -0.347 for the second.

Compared with L408W, L408Q is higher in “8OG:A repair function score” value: -0.833 for the first, -0.293 for the second.

Going from L408S to L408P, the “8OG:A repair function score” value rises from -0.483 to -0.461.

Compared with L408T, K422M is lower in “8OG:A repair function score” value: -0.417 for the first, -0.42 for the second.

Compared with K422P, K422T is higher in “8OG:A repair function score” value: -1.09 for the first, -0.156 for the second.

Going from K422G to K422W, the “8OG:A repair function score” value rises from -0.491 to -0.317.

Going from K422A to K422V, the “8OG:A repair function score” value falls from -0.0566 to -0.231.

First: K422C
Second: K422Q
The “8OG:A repair function score” value of the first is lower: -0.221 for the first, 0.195 for the second.

Compared with K422H, K422R is higher in “8OG:A repair function score” value: -0.22 for the first, 0.334 for the second.

Going from K422F to K422D, the “8OG:A repair function score” value rises from -0.584 to -0.458.

First: K422L
Second: K422S
The “8OG:A repair function score” value of the first is lower: -0.353 for the first, -0.227 for the second.

First: K422Y
Second: K422I
The “8OG:A repair function score” value of the first is lower: -0.355 for the first, -0.297 for the second.

Compared with K422N, K422E is lower in “8OG:A repair function score” value: -0.21 for the first, -0.492 for the second.

Compared with G412Q, G412K is higher in “8OG:A repair function score” value: -0.645 for the first, -0.396 for the second.

First: G412H
Second: G412P
The “8OG:A repair function score” value of the first is lower: -0.792 for the first, -0.295 for the second.

Going from G412M to G412T, the “8OG:A repair function score” value rises from -0.67 to -0.494.

Compared with G412L, G412E is higher in “8OG:A repair function score” value: -0.855 for the first, -0.631 for the second.

Compared with G412S, G412V is lower in “8OG:A repair function score” value: -0.26 for the first, -0.894 for the second.

First: G412I
Second: G412D
The “8OG:A repair function score” value of the first is lower: -0.788 for the first, -0.162 for the second.

First: G412C
Second: G412N
The “8OG:A repair function score” value of the first is lower: -0.809 for the first, -0.34 for the second.

First: G412Y
Second: G412A
The “8OG:A repair function score” value of the first is lower: -0.721 for the first, -0.236 for the second.

Going from G412F to G412R, the “8OG:A repair function score” value falls from -0.473 to -0.598.

Compared with G412W, E413L is higher in “8OG:A repair function score” value: -0.986 for the first, -0.056 for the second.

Compared with E413C, E413F is higher in “8OG:A repair function score” value: -0.201 for the first, 0.0141 for the second.

Going from E413P to E413I, the “8OG:A repair function score” value rises from -0.386 to 0.00451.

Going from E413A to E413D, the “8OG:A repair function score” value rises from -0.0523 to -0.00314.

Going from E413T to E413V, the “8OG:A repair function score” value falls from 0.369 to -0.059.

Going from E413G to E413W, the “8OG:A repair function score” value falls from -0.112 to -0.379.

Going from E413N to E413K, the “8OG:A repair function score” value rises from -0.0589 to 0.103.

Going from E413H to E413M, the “8OG:A repair function score” value falls from 0.00964 to -0.375.

First: E413R
Second: E413Q
The “8OG:A repair function score” value of the first is lower: -0.0915 for the first, -0.0587 for the second.

Going from E413Y to E413S, the “8OG:A repair function score” value rises from -0.109 to 0.169.

Going from H410M to H410I, the “8OG:A repair function score” value falls from 0.0995 to -0.161.

First: H410P
Second: H410R
The “8OG:A repair function score” value of the first is lower: -0.371 for the first, 0.0868 for the second.

First: H410L
Second: H410K
The “8OG:A repair function score” value of the first is lower: -0.3 for the first, -0.0723 for the second.

Compared with H410A, H410F is higher in “8OG:A repair function score” value: -0.29 for the first, 0.096 for the second.

Compared with H410Q, H410E is lower in “8OG:A repair function score” value: -0.291 for the first, -0.292 for the second.

First: H410N
Second: H410T
The “8OG:A repair function score” value of the first is higher: -0.157 for the first, -0.322 for the second.

First: H410Y
Second: H410C
The “8OG:A repair function score” value of the first is higher: 0.174 for the first, -0.293 for the second.

First: H410S
Second: H410W
The “8OG:A repair function score” value of the first is higher: -0.169 for the first, -0.367 for the second.

Compared with H410G, H410V is higher in “8OG:A repair function score” value: -0.298 for the first, -0.2 for the second.

Going from H410D to Y425Q, the “8OG:A repair function score” value falls from -0.324 to -0.626.

Going from Y425V to Y425T, the “8OG:A repair function score” value falls from 0.00816 to -0.255.

Compared with Y425G, Y425H is higher in “8OG:A repair function score” value: -0.907 for the first, -0.0609 for the second.

Y425R was tested, and the “8OG:A repair function score” value was -0.476.
